This note sets out measurements from PMC10097602, “Ubiquitin-like conjugation by bacterial cGAS enhances anti-phage defence” (Nature, 2023).

The target of one series is T1, Vs.4 (Tequatrovirus T4, UniProt P13314).
T1 construct: gene acb2; residues 1-88, full length; SUMO fusion with His6, tag cleaved by ULP1; E. coli BL21(DE3)pLysS
T1 sequence (P13314 1-88): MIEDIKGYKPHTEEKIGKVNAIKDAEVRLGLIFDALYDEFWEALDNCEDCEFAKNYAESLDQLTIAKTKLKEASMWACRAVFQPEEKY
Description: isothermal titration calorimetry (VP-ITC), global fit of three titrations. Format: binding.

The next series concerns the target cGAMP. Description: ITC. The settings on record: for Kd: parent: 31.4 nM; for other: ΔH: parent: -24.9 kcal/mol; for other: ΔS: parent: -50.6.
Series [1] concerns the molecule itself. Description: crystal structure; Vs.4 with 3'3'-cGAMP (1.2:1 molar ratio), hanging drops, 7% PEG8000, 0.1 M imidazole pH 6.3, 0.2 mM calcium acetate, room temperature; quaternary structure confirmed with PISA.
Series [2] deals with the molecule itself. Description: AUC; sedimentation velocity, 15 µM of each protein in 20 mM Tris and 150 mM NaCl; hexamer.
The mark [3] stands for this setting: high incompetent fraction (0.496).

The molecule `Nc1nc2c(ncn2[C@@H]2O[C@@H]3COP(=O)(O)O[C@H]4[C@@H](O)[C@H](n5cnc6c(N)ncnc65)O[C@@H]4COP(=O)(O)O[C@H]3[C@H]2O)c(=O)[nH]1` [3′3′-cGAMP] gave an equilibrium dissociation constant (Kd) at Vs.4 of 0.0314 µM.
In the case of “Vs.4 from phage T4 (residues 1-88) (from UniProt P13314) A77Y”, in the series with cGAMP, the Kd was determined as 1.1 µM, the other: ΔH is -20.9 kJ/mol and the other: ΔS worked out at 10.3 cal/mol·K.
As for “Vs.4 from phage T4 (residues 1-88) (from UniProt P13314) F33A”, in the series with cGAMP (setting [3]), the dissociation constant (Kd) is 0.0253 µM, the other: ΔH is -102 kJ/mol and the other: ΔS is -48.8 cal/mol·K.
On to “Vs.4 from phage T4 (residues 1-88) (from UniProt P13314) F82A”, for which, in the series with cGAMP, the dissociation constant Kd was determined as 0.859 µM, the other: ΔH was -97.5 kJ/mol and the other: ΔS is -51.6 cal/mol·K.
In the same order, the values of “Vs.4 from phage T4 (residues 1-88) (from UniProt P13314) Y8A” are 0.158 µM, -44.4 kJ/mol and -5 cal/mol·K.

B1: Vs.4 from phage T4 (residues 1-88) (natural protein, UniProt P13314 1-88, looked up)
chain: MIEDIKGYKPHTEEKIGKVNAIKDAEVRLGLIFDALYDEFWEALDNCEDCEFAKNYAESLDQLTIAKTKLKEASMWACRAVFQPEEKY
notes: Vs.4, protein of unknown function of bacteriophage T4, residues 1-88; T4 proteome UniProt UP000009087; Hexamer by crystal structure and analytical ultracentrifugation; also called Vs.4 (WT); wild-type Vs.4; source: E. coli BL21(DE3)pLysS, purified (Ni-NTA, SUMO tag cleaved with ULP1, size-exclusion chromatography)
Take B1: in series [1], the “stoichiometry N” value amounted to 6.

B2: Vs.4 F33A (natural protein, phage T4, UniProt P13314 1-88, looked up)
chain: MIEDIKGYKPHTEEKIGKVNAIKDAEVRLGLIADALYDEFWEALDNCEDCEFAKNYAESLDQLTIAKTKLKEASMWACRAVFQPEEKY
notes: Vs.4 of bacteriophage T4, residues 1-88, with F33A; source: E. coli BL21(DE3)pLysS, purified (Ni-NTA, SUMO tag cleaved with ULP1, size-exclusion chromatography)
In the case of B2, the binding result in series [2] is “binds”.

By Kd is commonly meant the free concentration of one partner at which half of the binding sites on the other are occupied at equilibrium, for simple one-to-one binding. By stoichiometry N is commonly meant the number of molecules, sites or subunits per partner or assembly.
